Assay results as given in patent US20250002588A1 (DIAGONAL THERAPEUTICS, published 2025).

Molecular target: ALK-1/BMPR-2 receptor pair of the PathHunter U2Os dimerization cells (DiscoverX 93-0962C3) (UniProt P37023 22-503; Q13873 27-1038)
Assay: cell-based or functional assay

Chain of ALK-1/BMPR-2 receptor pair of the PathHunter U2Os dimerization cells (DiscoverX 93-0962C3) (P37023 22-503, chain 1 of 2): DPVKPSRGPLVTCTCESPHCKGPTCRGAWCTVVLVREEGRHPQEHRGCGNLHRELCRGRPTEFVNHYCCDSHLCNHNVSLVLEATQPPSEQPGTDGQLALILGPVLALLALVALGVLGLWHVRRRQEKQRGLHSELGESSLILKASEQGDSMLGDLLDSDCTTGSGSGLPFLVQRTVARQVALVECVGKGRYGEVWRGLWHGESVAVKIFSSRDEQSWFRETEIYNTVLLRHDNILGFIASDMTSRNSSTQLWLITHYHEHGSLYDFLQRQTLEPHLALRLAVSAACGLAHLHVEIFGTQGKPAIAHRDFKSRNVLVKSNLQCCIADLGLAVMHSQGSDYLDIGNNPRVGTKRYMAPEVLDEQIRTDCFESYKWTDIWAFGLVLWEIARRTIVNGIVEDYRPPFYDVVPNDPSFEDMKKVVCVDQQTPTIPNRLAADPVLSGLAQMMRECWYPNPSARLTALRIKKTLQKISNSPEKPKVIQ
Chain of ALK-1/BMPR-2 receptor pair of the PathHunter U2Os dimerization cells (DiscoverX 93-0962C3) (Q13873 27-1038, chain 2 of 2): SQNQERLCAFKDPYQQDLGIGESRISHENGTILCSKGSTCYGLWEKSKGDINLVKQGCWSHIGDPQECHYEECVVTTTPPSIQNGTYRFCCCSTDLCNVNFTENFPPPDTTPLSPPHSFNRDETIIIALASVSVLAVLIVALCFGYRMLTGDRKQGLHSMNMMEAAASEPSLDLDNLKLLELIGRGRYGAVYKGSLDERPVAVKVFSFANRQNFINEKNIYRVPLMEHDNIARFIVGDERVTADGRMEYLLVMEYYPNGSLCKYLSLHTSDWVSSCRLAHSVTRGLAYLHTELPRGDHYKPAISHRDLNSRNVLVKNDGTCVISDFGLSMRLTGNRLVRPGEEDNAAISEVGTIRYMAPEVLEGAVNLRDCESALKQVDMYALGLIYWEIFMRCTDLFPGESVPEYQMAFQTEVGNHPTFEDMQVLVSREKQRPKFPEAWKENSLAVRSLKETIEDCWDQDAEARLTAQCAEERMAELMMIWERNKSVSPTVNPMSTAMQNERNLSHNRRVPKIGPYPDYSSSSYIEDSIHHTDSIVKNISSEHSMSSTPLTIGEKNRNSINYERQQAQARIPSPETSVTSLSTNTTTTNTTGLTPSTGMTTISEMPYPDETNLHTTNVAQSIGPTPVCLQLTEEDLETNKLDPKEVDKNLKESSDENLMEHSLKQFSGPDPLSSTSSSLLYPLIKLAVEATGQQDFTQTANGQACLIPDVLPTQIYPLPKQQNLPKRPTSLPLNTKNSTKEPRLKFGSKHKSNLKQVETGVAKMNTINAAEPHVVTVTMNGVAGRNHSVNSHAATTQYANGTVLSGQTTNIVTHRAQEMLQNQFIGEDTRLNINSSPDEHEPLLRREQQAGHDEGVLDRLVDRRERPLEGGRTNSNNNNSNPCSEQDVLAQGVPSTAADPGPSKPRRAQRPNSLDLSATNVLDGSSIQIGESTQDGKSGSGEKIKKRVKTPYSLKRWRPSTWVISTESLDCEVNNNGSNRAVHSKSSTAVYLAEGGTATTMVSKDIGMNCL

Binder | % Emax BMP9 [%] | Emax (RLU)
DGL651 (bispecific antibody) chain 1: not shown chain 2: EVQLLESGGGLVQPGGSLRLSCAASGFTFSDYYMTWIRQAPGKGLEWVSSISGGSTYYADSRKGRFTISRDNSENTLYLQMNSLRAEDTAVYYCARDFGVAGWFGQYGMDVWGQGTLVTVSSGGGGSGGGGSGGGGSQSVLTQPPSASGTPGQRVTISCTGSSSNIGAGYDVHWYQQLPGTAPKLLIYRSNQRPSGVPDRFSGSKSGTSASLAISGLRSEDEADYYCSSYAGNYNLVFGGGTKLTVLDKTHTCPPCPAPEAAGAPSVFLFPPKPKDTLMISRTPEVTCVVVDVSHEDPEVKFNWYVDGVEVHNAKTKPREEQYNSTYRVVSVLTVLHQDWLNGKEYKCKVSNKALPAPIEKTISKAKGQPREPQVCTLPPSRDELTKNQVSLSCAVKGFYPSDIAVEWESNGQPENNYKTTPPVLDSDGSFFLVSKLTVDKSRWQQGNVFSCSVMHEALHNHYTQKSLSLSPGWSHPQFEK | 72 | 1.76e+07
DGL652 (bispecific antibody) chain 1: not shown chain 2: EVQLLESGGGLVQPGGSLRLSCAASGFTFSDYYMTWIRQAPGKGLEWVSSISGGSTYYADSRKGRFTISRDNSENTLYLQMNSLRAEDTAVYYCARDFGVAGWFGQYGMDVWGQGTLVTVSSGGGGSGGGGSGGGGSQSVLTQPPSASGTPGQRVTISCTGSSSNIGAGYDVHWYQQLPGTAPKLLIYRSNQRPSGVPDRFSGSKSGTSASLAISGLRSEDEADYYCSSYAGNYNLVFGGGTKLTVLDKTHTCPPCPAPEAAGAPSVFLFPPKPKDTLMISRTPEVTCVVVDVSHEDPEVKFNWYVDGVEVHNAKTKPREEQYNSTYRVVSVLTVLHQDWLNGKEYKCKVSNKALPAPIEKTISKAKGQPREPQVCTLPPSRDELTKNQVSLSCAVKGFYPSDIAVEWESNGQPENNYKTTPPVLDSDGSFFLVSKLTVDKSRWQQGNVFSCSVMHEALHNHYTQKSLSLSPGWSHPQFEK | 60 | 1.48e+06

Now from value to binder:

% Emax BMP9 [%] | Emax (RLU) | Binder
76 | 1.87e+06 | DGL654 (bispecific antibody) chain 1: EVQLLESGGGLVQPGGSLRLSCAASGFTFSDYYMNWIRQAPGKGLEWVSSISGGSTYYADSVKGRFTISRDNSENTLYLQMNSLRAEDTAVYYCARDFGVAGWFGQFGMDVWGQGTLVTVSSGGGGSGGGGSGGGGSQSVLTQPPSASGTPGQRVTISCTGSSSNIGAGYDVHWYQQLPGTAPKLLIYRSNQRPSGVPDRFSGSKSGTSASLAISGLRSEDEADYYCSSYAGNYNLVFGGGTKLTVLDKTHTCPPCPAPEAAGAPSVFLFPPKPKDTLMISRTPEVTCVVVDVSHEDPEVKFNWYVDGVEVHNAKTKPREEQYNSTYRVVSVLTVLHQDWLNGKEYKCKVSNKALPAPIEKTISKAKGQPREPQVCTLPPSRDELTKNQVSLSCAVKGFYPSDIAVEWESNGQPENNYKTTPPVLDSDGSFFLVSKLTVDKSRWQQGNVFSCSVMHEALHNHYTQKSLSLSPGWSHPQFEK chain 2: not shown
58 | 1.43e+06 | DGL653 (bispecific antibody) chain 1: not shown chain 2: EVQLLESGGGLVQPGGSLRLSCAASGFTFSDYYMTWIRQAPGKGLEWVSSISGGSTYYADSRKGRFTISRDNSENTLYLQMNSLRAEDTAVYYCARDFGVAGWFGQYGMDVWGQGTLVTVSSGGGGSGGGGSGGGGSQSVLTQPPSASGTPGQRVTISCTGSSSNIGAGYDVHWYQQLPGTAPKLLIYRSNQRPSGVPDRFSGSKSGTSASLAISGLRSEDEADYYCSSYAGNYNLVFGGGTKLTVLDKTHTCPPCPAPEAAGAPSVFLFPPKPKDTLMISRTPEVTCVVVDVSHEDPEVKFNWYVDGVEVHNAKTKPREEQYNSTYRVVSVLTVLHQDWLNGKEYKCKVSNKALPAPIEKTISKAKGQPREPQVCTLPPSRDELTKNQVSLSCAVKGFYPSDIAVEWESNGQPENNYKTTPPVLDSDGSFFLVSKLTVDKSRWQQGNVFSCSVMHEALHNHYTQKSLSLSPGWSHPQFEK
